# Laboratory results as given in paper doi:10.1101/2024.10.11.617910 (bioRxiv, 2024).
# B1: Donanemab (antibody, V domains shown)
# VH: QVQLVQSGAEVKKPGSSVKVSCKASGYDFTRYYINWVRQAPGQGLEWMGWINPGSGNTKYNEKFKGRVTITADESTSTAYMELSSLRSEDTAVYYCAREGITVYWGQGTTVTVSS
# VL: DIVMTQTPLSLSVTPGQPASISCKSSQSLLYSRGKTYLNWLLQKPGQSPQLLIYAVSKLDSGVPDRFSGSGSGTDFTLKISRVEAEDVGVYYCVQGTHYPFTFGQGTKLEIK
# Target: beta-amyloid 42 peptide (UniProt P05067)
# Test: SiMoA
binder,measurement,value
B1,binding result,no binding
